From EP4491631A1 (Anaveon AG, dated 2025)

Biological target: T1, IL-2R CD122-CD132 on Jurkat-PD1+ CD122+ cells (UniProt P14784 27-551; P31785 23-369)
T1 sequence (looked up) 1: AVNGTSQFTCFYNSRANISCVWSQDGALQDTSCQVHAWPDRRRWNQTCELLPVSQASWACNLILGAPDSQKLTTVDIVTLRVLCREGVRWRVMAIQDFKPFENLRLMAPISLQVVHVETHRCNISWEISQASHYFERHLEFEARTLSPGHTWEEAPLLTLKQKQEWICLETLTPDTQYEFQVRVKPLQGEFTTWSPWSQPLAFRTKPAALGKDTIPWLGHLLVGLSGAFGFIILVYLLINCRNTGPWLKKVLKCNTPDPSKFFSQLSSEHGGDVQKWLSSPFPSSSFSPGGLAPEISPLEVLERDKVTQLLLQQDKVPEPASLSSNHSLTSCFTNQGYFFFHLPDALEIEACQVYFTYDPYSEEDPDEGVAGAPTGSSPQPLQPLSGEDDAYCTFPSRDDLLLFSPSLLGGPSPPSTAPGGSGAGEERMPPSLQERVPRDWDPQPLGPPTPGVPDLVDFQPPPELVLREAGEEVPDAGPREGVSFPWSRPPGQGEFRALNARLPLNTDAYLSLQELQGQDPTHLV
T1 sequence (looked up) 2: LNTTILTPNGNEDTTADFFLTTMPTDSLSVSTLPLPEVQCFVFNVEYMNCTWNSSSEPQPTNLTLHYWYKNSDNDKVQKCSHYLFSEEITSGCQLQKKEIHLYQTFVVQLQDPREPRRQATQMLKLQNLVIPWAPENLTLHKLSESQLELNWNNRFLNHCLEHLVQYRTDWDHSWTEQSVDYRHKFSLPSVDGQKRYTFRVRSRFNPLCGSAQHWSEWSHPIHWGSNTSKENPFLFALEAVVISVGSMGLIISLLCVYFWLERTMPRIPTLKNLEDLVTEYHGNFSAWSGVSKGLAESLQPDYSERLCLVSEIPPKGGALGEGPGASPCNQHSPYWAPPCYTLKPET
Assay: cell-based or functional assay

B1: YPW986 (bispecific antibody)
chain 1: EVQLLESGGGLVQPGGSLRLSCAASGFTFSINAMTWVRQAPGKGLEWVSTISGSGFSTYYADSLKGRFTISRDNSKNTLYLQMNSLRAEDTAVYYCAKEVYGDYWGQGTLVTVSSASVAAPSVFIFPPSDEQLKSGTASVVCLLNNFYPREAKVQWKVDNALQSGNSQESVTEQDSKDSTYSLSSTLTLSKADYEKHKVYACEVTHQGLSSPVTKSFNRGECDKTHTCPPCPAPEAAGGPSVFLFPPKPKDTLMISRTPEVTCVVVDVSHEDPEVKFNWYVDGVEVHNAKTKPREEQYNSTYRVVSVLTVLHQDWLNGKEYKCKVSNKALAAPIEKTISKAKGQPREPQVYTLPPSREEMTKNQVSLTCLVKGFYPSDIAVEWESNGQPENNYKTTPPVLDSDGSFFLTSKLTVDKSRWQQGNVFSCSVMHEALHNHYTQKSLSLSPGK
chain 2: RSVLTQPPSASGTPGQRVSISCSGASSNIGSQSVFWYQQLPGTAPKLLIYSNNQRPSGVPDRFSGSKSGTSASLAISGLRSEDEADYYCAAWDDSLSIWVFGGGTKLTVLSSASTKGPSVFPLAPSSKSTSGGTAALGCLVKDYFPEPVTVSWNSGALTSGVHTFPAVLQSSGLYSLSSVVTVPSSSLGTQTYICNVNHKPSNTKVDKRVEPKSC
chain 3: EVQLVQSGAEVKKPGESLKISCKGSGYAFTNYLIEWVRQMPGKGLEWMGVINPGSGGTNYNEKFKGQVTISADKSISTAYLQWSSLKASDTAMYYCARWRGEGYYAYFDVWGQGTTVTVSSASTKGPSVFPLAPSSKSTSGGTAALGCLVKDYFPEPVTVSWNSGALTSGVHTFPAVLQSSGLYSLSSVVTVPSSSLGTQTYICNVNHKPSNTKVDKRVEPKSCDKTHTCPPCPAPEAAGGPSVFLFPPKPKDTLMISRTPEVTCVVVDVSHEDPEVKFNWYVDGVEVHNAKTKPREEQYNSTYRVVSVLTVLHQDWLNGKEYKCKVSNKALAAPIEKTISKAKGQPREPQVYTLPPSREEMTKNQVSLYCLVKGFYPSDIAVEWESNGQPENNYKTTPPVLDSDGSFFLYSKLTVDKSRWQQGNVFSCSVMHEALHNHYTQKSLSLSPGK
chain 4: not shown
- EC50 value for pSTAT5 induction: 43.9 nM

B2: PXU588 (bispecific antibody)
chain 1: EVQLLESGGGLVQPGGSLRLSCAASGFTFSINAMTWVRQAPGKGLEWVSTISGSGFSTYYADSLKGRFTISRDNSKNTLYLQMNSLRAEDTAVYYCAKEVYGDYWGQGTLVTVSSASVAAPSVFIFPPSDEQLKSGTASVVCLLNNFYPREAKVQWKVDNALQSGNSQESVTEQDSKDSTYSLSSTLTLSKADYEKHKVYACEVTHQGLSSPVTKSFNRGECDKTHTCPPCPAPEAAGGPSVFLFPPKPKDTLMISRTPEVTCVVVDVSHEDPEVKFNWYVDGVEVHNAKTKPREEQYNSTYRVVSVLTVLHQDWLNGKEYKCKVSNKALAAPIEKTISKAKGQPREPQVYTLPPSREEMTKNQVSLTCLVKGFYPSDIAVEWESNGQPENNYKTTPPVLDSDGSFFLTSKLTVDKSRWQQGNVFSCSVMHEALHNHYTQKSLSLSPGK
chain 2: RSVLTQPPSASGTPGQRVSISCSGASSNIGSSSVFWYQQLPGTAPKLLIYSNNQRPSGVPDRFSGSKSGTSASLAISGLRSEDEADYYCAAWDDSLSIWVFGGGTKLTVLSSASTKGPSVFPLAPSSKSTSGGTAALGCLVKDYFPEPVTVSWNSGALTSGVHTFPAVLQSSGLYSLSSVVTVPSSSLGTQTYICNVNHKPSNTKVDKRVEPKSC
chain 3: EVQLVQSGAEVKKPGESLKISCKGSGYAFTNYLIEWVRQMPGKGLEWMGVINPGSGGTNYNEKFKGQVTISADKSISTAYLQWSSLKASDTAMYYCARWRGEGYYAYFDVWGQGTTVTVSSASTKGPSVFPLAPSSKSTSGGTAALGCLVKDYFPEPVTVSWNSGALTSGVHTFPAVLQSSGLYSLSSVVTVPSSSLGTQTYICNVNHKPSNTKVDKRVEPKSCDKTHTCPPCPAPEAAGGPSVFLFPPKPKDTLMISRTPEVTCVVVDVSHEDPEVKFNWYVDGVEVHNAKTKPREEQYNSTYRVVSVLTVLHQDWLNGKEYKCKVSNKALAAPIEKTISKAKGQPREPQVYTLPPSREEMTKNQVSLYCLVKGFYPSDIAVEWESNGQPENNYKTTPPVLDSDGSFFLYSKLTVDKSRWQQGNVFSCSVMHEALHNHYTQKSLSLSPGK
chain 4: not shown
- EC50 value for pSTAT5 induction: 5.37 nM
